One substance from PMC3683130 can be followed below.

The target of this experiment is FLAG-tagged PUD-1 (C. elegans). Briefly: affinity purification with mass spectrometry; anti-FLAG IP (M2 beads) from worms with single-copy FLAG::PUD-1, N2 as control; eluted with 3xFLAG peptide; silver-stained bands cut and identified by LC-MS/MS.
FLAG-tagged PUD-1 (C. elegans), sequence (main, as listed by the source): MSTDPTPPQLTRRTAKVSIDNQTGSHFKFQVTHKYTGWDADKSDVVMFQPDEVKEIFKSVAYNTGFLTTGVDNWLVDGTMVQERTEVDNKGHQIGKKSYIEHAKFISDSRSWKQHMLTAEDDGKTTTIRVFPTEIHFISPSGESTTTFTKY

A word on the stoichiometry N: it is the number of molecules, sites or subunits per partner or assembly. For the substance Endogenous PUD-2 (natural protein), the stoichiometry N was 1.
